Results on one molecule are retold here after PMC10078426 (2022).

The assay addresses human IgG from serum (human, UniProt P01857 = IgG part). As to the kind of experiment: SPR. On the technique in general: Surface plasmon resonance follows binding to a sensor surface in real time, without labels.

B1: protein G only (natural protein)
chain: VDSPIEDTPIIRNGGELTNLLGNSETTLALRNEESATADLTAAAVADTVAAAAAENAGAAAWEAAAAADALAKAKADALKEFNKYGVSDYYKNLINNAKTVEGVKDLQAQVVESAKKARISEATDGLSDFLKSQTPAEDTVKSIELAEAKVLANRELDKYGVSDYHKNLINNAKTVEGVKDLQAQVVESAKKARISEATDGLSDFLKSQTPAEDTVKSIELAEAKVLANRELDKYGVSDYYKNLINNAKTVEGVKALIDEILAALPKTDTYKLILNGKTLKGETTTEAVDAATAEKVFKQYANDNGVDGEWTYDDATKTFTVTEKPEVIDASELTPAVTTYKLVINGKTLKGETTTEAVDAATAEKVFKQYANDNGVDGEWTYDDATKTFTVTEKPEVIDASELTPAVTTYKLVINGKTLKGETTTKAVDAETAEKAFKQYANDNGVDGVWTYDDATKTFTVTEMVTEVPGDAPTEPEKPEASIPLVPLTPATPIAKDDAKKDDTKKEDAKKPEAKKEDAKKAETLPTT
Usually Kd stands for the free concentration of one partner at which half of the binding sites on the other are occupied at equilibrium, for simple one-to-one binding. Low values mean a tighter complex, high ones a looser complex. With B1, the Kd is 35.6 nM.
